Test results published in patent publication US6469153 (TRUSTEES OF COLUMBIA UNIVERSITY IN THE CITY OF NEW YORK, dated 2002).
Read-outs that look alike come from different tables or passages of the source.

T1: Envelope protein (TM in the context of the whole envelope protein) on intact ecotropic N2 virus (Moloney murine leukemia virus, UniProt P03385 34-649, limits assumed)
T1 sequence (looked up): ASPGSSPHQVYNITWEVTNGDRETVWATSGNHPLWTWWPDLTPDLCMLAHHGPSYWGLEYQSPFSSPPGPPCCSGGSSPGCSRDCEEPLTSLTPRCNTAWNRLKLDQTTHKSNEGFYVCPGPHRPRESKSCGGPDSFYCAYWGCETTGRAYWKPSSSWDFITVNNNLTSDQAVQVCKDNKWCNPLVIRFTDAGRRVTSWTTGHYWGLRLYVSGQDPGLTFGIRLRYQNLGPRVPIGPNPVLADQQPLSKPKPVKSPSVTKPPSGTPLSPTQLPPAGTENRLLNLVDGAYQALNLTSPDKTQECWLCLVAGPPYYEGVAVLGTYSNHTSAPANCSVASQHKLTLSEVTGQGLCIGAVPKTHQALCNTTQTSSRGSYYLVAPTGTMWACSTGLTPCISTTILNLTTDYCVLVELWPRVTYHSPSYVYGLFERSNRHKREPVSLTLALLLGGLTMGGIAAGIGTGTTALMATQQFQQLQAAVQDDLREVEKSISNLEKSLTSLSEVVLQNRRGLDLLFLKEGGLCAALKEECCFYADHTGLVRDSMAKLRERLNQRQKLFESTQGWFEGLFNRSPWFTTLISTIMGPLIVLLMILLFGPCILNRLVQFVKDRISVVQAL


Assays:
[1] = target: Envelope protein (TM) on amphotropic N2 virus (amphotropic murine retrovirus); experiment: cell-based or functional assay
[2] = target: Envelope protein (TM) on amphotropic N2 virus (amphotropic murine retrovirus); experiment: cell-based or functional assay; remark: listed apart in the source
[3] = target: Envelope protein (TM in the context of the whole envelope protein) on intact ecotropic N2 virus (Moloney murine leukemia virus) (UniProt P03385); experiment: cell-based or functional assay
[4] = target: T1, Envelope protein (TM in the context of …); experiment: cell-based or functional assay
[5] = target: T1, Envelope protein (TM in the context of …); experiment: depletion of N2 virus by GST-EIP-1 beads; titer of remaining virus
Method: EIP-1 to EIP-5 have been examined using this assay to directly measure the binding of EIPs to the intact virus. In this binding assay, virus is mixed with GST-EIP-agarose beads and incubated for 2 hours. After incubation, the mixtures are centrifuged, and the supernatants are used to transduce fresh NIH3T3 cells. After two days, cells are split into G418-containing medium. Ten to twelve days later, colonies are counted. If the virus binds to EIPs, virus is retained on agarose beads leading to a reduction in virus titer in supernatant. […] In control samples, virus was incubated with GST-agarose beads or beads alone, and no change in virus titer was observed (Table 2).
Whether EIP-1 could interact with TM on the native virion particle was tested. GST-EIP-1 beads were incubated with preparations of a virus vector (N2) containing the neoR gene and pelleted, and the titer of the remaining virus was determined to test for depletion of infectivity from the stock. Whereas beads alone, beads containing GST, or beads with control GST fusions had no effect on the titer, beads with GST-EIP-1 could consistently reduce the titer approximately 4-fold.

| Molecule | Fold Increase (amphotropic N2 virus on NIH3T3 cells) [1] [fold] | Neo^r Colonies, 1:1 (amphotropic N2 virus on NIH3T3 cells) [1] [colonies] | Neo^r Colonies, 1:5 (amphotropic N2 virus on NIH3T3 cells) [1] [colonies] | Fold Increase (amphotropic N2 virus on NIH3T3 cells) [2] [fold] | Neo^r Colonies, Amphotropic N2 virus 5 µl (1:10), NIH3T3 cells [2] [colonies] | Neo^r Colonies, Amphotropic N2 virus 5 µl (1:25), NIH3T3 cells [2] [colonies] | Fold Increase (ecotropic N2 virus on NIH3T3 cells) [3] [fold] | Neo^r Colonies, 1:1 (ecotropic N2 virus on NIH3T3 cells) [3] [colonies] | Neo^r Colonies, 1:5 (ecotropic N2 virus on NIH3T3 cells) [3] [colonies] | other results |
| --- | --- | --- | --- | --- | --- | --- | --- | --- | --- | --- |
| GST-EIP-1 (from UniProt Q9JI44 1-468) | – | – | – | – | – | – | – | – | – | increase of titer of amphotropic viruses titered on human cells [1]: 5 to 8 fold |
| GST-EIP-1A (from UniProt Q9JI44 1-468) | 7 | 854 | 136 | 8 | 854 | 136 | – | – | – | – |
| GST-EIP-1B (from UniProt Q9JI44 1-468) | 5 | 403 | 102 | 6 | 403 | 102 | 30 | > 1000 | 353 | Fold Increase (amphotropic N2 virus on Hela cells) [1]: 6 fold; Neo^r Colonies, Amphotropic N2 virus 5 µl (1:25), Hela cells [1]: 594 colonies |
| GST-EIP-2 (from UniProt P08515 1-218) | – | – | – | – | – | – | 1 | 69 | 24 | CFU/2 ul virus (Neo^r colonies after incubation of virus with purified protein, 1 µg/ml, 37° C., 1 h) [3]: 24 CFU; CFU/10 ul virus (Neo^r colonies after incubation of virus with purified protein, 1 µg/ml, 37° C., 1 h) [3]: 69 CFU; Ratio (enhancement of virus infectivity) [3]: 1 |
| GST-EIP-1 (other, It was used on glutathione agarose beads or eluted as soluble protein; also called EIP-1 fused with glutathione S-transferase; not shown: glutathione S-transferase (GST)) MATGADVRDILELGGPEGDAASGTISKKDIINPDKKKSKKSSETLTFKRPEGMHREVYALLYSDKKDAPPLLPSDTGRGHRTVKAKLGSKKVRPWKWMPFTNPARKDGAMFFHWRRAAEEGKDYPFARFNKTVQVPVYSEQEYQLYLHDDAWTKAETDHLFDLSRRFDLRFVVIHDRYDHQQFKKRSVEDLKERYYHICAKLANVRAVPGTDLKIPVFDAGHERRRKEQLERLYNRTPEQVAEEEYLLQELRKIEARKKEEKRSQDLQKLITAADTTAEQRRTERKAPKKKLPQKKEAEKPAVPETAGIKFPDFKSAGVTLRSQRMKLPSSVGQKKIKALEQMLLELGVELSPTPTEELVHMFNELRSDLVLLYELKQACANCEYELQMLRHRHEALARAGVLGAPAAAAVGPTPASAEPTVSESGLGLDPTKDTIIDVVGAPLTPNSRKRRESASSSSSVKKAKKP | – | – | – | – | – | – | – | – | – | Ratio (enhancement of virus infectivity) [4]: 30 ratio; fold reduction of the titer of remaining virus [5]: ~4 fold |
